Experimental data from US20190360025A1.

Experiments:
[1] = biological target: tumor necrosis factor alpha (TNF-α), R&D Systems 210-TA-005 (UniProt P01375); assay: t-PLA 1X probes, human plasma; TNF-α 1.00E-08 M
[2] = biological target: tumor necrosis factor alpha (TNF-α), R&D Systems 210-TA-005 (UniProt P01375); assay: t-PLA 1X probes, buffer; TNF-α 1.00E-08 M
[3] = biological target: tumor necrosis factor alpha (TNF-α), R&D Systems 210-TA-005 (UniProt P01375); assay: t-PLA, buffer; TNF-α 1.00E-12 M
[4] = biological target: tumor necrosis factor alpha (TNF-α), R&D Systems 210-TA-005 (UniProt P01375); assay: c-PLA 10X probes, human plasma; TNF-α 1.00E-10 M
[5] = biological target: tumor necrosis factor alpha (TNF-α), R&D Systems 210-TA-005 (UniProt P01375); assay: t-PLA 1X probes, human plasma; TNF-α 1.00E-12 M
[6] = biological target: tumor necrosis factor alpha (TNF-α), R&D Systems 210-TA-005 (UniProt P01375); assay: t-PLA 10X probes, human plasma; TNF-α 1.00E-12 M
[7] = biological target: tumor necrosis factor alpha (TNF-α), R&D Systems 210-TA-005 (UniProt P01375); assay: t-PLA 1X probes, human plasma; TNF-α 5.00E-07 M
[8] = biological target: tumor necrosis factor alpha (TNF-α), R&D Systems 210-TA-005 (UniProt P01375); assay: t-PLA 10X probes, buffer; TNF-α 1.00E-11 M
[9] = biological target: tumor necrosis factor alpha (TNF-α), R&D Systems 210-TA-005 (UniProt P01375); assay: c-PLA 10X probes, human plasma; TNF-α 1.00E-13 M
[10] = biological target: tumor necrosis factor alpha (TNF-α), R&D Systems 210-TA-005 (UniProt P01375); assay: c-PLA 10X probes, human plasma; TNF-α 5.00E-07 M
[11] = biological target: tumor necrosis factor alpha (TNF-α), R&D Systems 210-TA-005 (UniProt P01375); assay: c-PLA 1X probes, human plasma; TNF-α 1.00E-12 M
[12] = biological target: tumor necrosis factor alpha (TNF-α), R&D Systems 210-TA-005 (UniProt P01375); assay: t-PLA 10X probes, human plasma; TNF-α 1.00E-10 M
[13] = biological target: tumor necrosis factor alpha (TNF-α), R&D Systems 210-TA-005 (UniProt P01375); assay: t-PLA 10X probes, buffer; TNF-α 5.00E-07 M
[14] = biological target: vascular endothelial growth factor (VEGF), R&D Systems 293-VE-010 (human) (UniProt P15692); assay: t-PLA, chicken plasma; VEGF 1.00E-09 M
[15] = biological target: vascular endothelial growth factor (VEGF), R&D Systems 293-VE-010 (human) (UniProt P15692); assay: t-PLA, buffer; VEGF 1.00E-11 M
[16] = biological target: vascular endothelial growth factor (VEGF), R&D Systems 293-VE-010 (human) (UniProt P15692); assay: t-PLA, buffer; VEGF 1.00E-08 M
[17] = biological target: vascular endothelial growth factor (VEGF), R&D Systems 293-VE-010 (human) (UniProt P15692); assay: c-PLA, buffer; VEGF 1.00E-11 M
[18] = biological target: vascular endothelial growth factor (VEGF), R&D Systems 293-VE-010 (human) (UniProt P15692); assay: t-PLA with preamplification; VEGF 1.00E-12 M
[19] = biological target: vascular endothelial growth factor (VEGF), R&D Systems 293-VE-010 (human) (UniProt P15692); assay: t-PLA with preamplification; VEGF 1.00E-09 M
[20] = biological target: vascular endothelial growth factor (VEGF), R&D Systems 293-VE-010 (human) (UniProt P15692); assay: c-PLA, human plasma; VEGF 1.00E-11 M
[21] = biological target: vascular endothelial growth factor (VEGF), R&D Systems 293-VE-010 (human) (UniProt P15692); assay: c-PLA, buffer; VEGF 1.00E-12 M
[22] = biological target: vascular endothelial growth factor (VEGF), R&D Systems 293-VE-010 (human) (UniProt P15692); assay: t-PLA, human plasma; VEGF 1.00E-13 M
[23] = biological target: vascular endothelial growth factor (VEGF), R&D Systems 293-VE-010 (human) (UniProt P15692); assay: t-PLA with preamplification; VEGF 1.00E-10 M
[24] = biological target: vascular endothelial growth factor (VEGF), R&D Systems 293-VE-010 (human) (UniProt P15692); assay: c-PLA, chicken plasma; VEGF 1.00E-14 M
[25] = biological target: vascular endothelial growth factor (VEGF), R&D Systems 293-VE-010 (human) (UniProt P15692); assay: c-PLA with preamplification; VEGF 1.00E-12 M
[26] = biological target: vascular endothelial growth factor (VEGF), R&D Systems 293-VE-010 (human) (UniProt P15692); assay: t-PLA, human plasma; VEGF 1.00E-11 M
[27] = biological target: vascular endothelial growth factor (VEGF), R&D Systems 293-VE-010 (human) (UniProt P15692); assay: c-PLA, chicken plasma; VEGF 1.00E-11 M
[28] = biological target: vascular endothelial growth factor (VEGF), R&D Systems 293-VE-010 (human) (UniProt P15692); assay: t-PLA, human plasma; VEGF 1.00E-10 M

Sequence of UniProt P15692 (P15692 other isoform, or with tags, fused parts or gaps limits assumed): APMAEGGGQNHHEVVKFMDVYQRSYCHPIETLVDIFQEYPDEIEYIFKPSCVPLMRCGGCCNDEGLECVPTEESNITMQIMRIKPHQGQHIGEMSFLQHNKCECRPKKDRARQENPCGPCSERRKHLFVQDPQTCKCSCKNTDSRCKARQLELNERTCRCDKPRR
Sequence of UniProt P01375 (P01375 77-233 limits assumed): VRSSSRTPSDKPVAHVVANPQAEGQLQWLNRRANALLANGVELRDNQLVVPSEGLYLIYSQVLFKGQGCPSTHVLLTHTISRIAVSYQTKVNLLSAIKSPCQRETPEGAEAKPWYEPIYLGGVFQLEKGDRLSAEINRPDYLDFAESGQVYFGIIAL

## affinity-purified polyclonal anti-TNF-α antibody (R&D Systems AF-210-NA)
[1]
  Counts: 1.79e+07
  SBR: 75
[2]
  Counts: 5.4e+07
  SBR: 65
[3]
  Counts: 1.65e+06
  SBR: 9.7
[4]
  Counts: 7420
[5]
  Counts: 154000
[6]
  SBR: 2.4
[7]
  Counts: 2.12e+08
  SBR: 892
[8]
  Counts: 7.03e+06
  SBR: 1.2
[9]
  Counts: 2030
[10]
  Counts: 495000
  SBR: 230
[11]
  Counts: 75.9
[12]
  Counts: 1.44e+07
  SBR: 1.3
[13]
  Counts: 2.24e+09
  SBR: 392

## affinity-purified polyclonal anti-VEGF antibody (R&D Systems AF-293-NA)
[14]
  Counts: 2.39e+08
  SBR: 3580
[15]
  Counts: 4.21e+07
  SBR: 122
[16]
  Counts: 2.5e+09
  SBR: 7230
[17]
  Counts: 4820
  SBR: 162
[18]
  Counts: 1.26e+06
  SBR: 7.1
[19]
  Counts: 1.19e+09
  SBR: 6740
[20]
  Counts: 1770
  SBR: 6.8
[21]
  Counts: 619
  SBR: 21
[22]
  Counts: 1.79e+06
  SBR: 1.1
[23]
  Counts: 1.78e+08
  SBR: 1010
[24]
  Counts: 10.7
  SBR: 1.2
[25]
  Counts: 516000
  SBR: 8.7
[26]
  Counts: 7.15e+06
[27]
  Counts: 2160
  SBR: 234
[28]
  Counts: 4.9e+07
  SBR: 30
